Results: patent publication US20180002445A1 (published 2018)

Assays:
human catalase = target: T1, human catalase (human, UniProt P04040 2-527); test: heading of the sequence table; ELISA selection
T1 construct: Target of the ELISA by which the clones were selected
T1 sequence (looked up): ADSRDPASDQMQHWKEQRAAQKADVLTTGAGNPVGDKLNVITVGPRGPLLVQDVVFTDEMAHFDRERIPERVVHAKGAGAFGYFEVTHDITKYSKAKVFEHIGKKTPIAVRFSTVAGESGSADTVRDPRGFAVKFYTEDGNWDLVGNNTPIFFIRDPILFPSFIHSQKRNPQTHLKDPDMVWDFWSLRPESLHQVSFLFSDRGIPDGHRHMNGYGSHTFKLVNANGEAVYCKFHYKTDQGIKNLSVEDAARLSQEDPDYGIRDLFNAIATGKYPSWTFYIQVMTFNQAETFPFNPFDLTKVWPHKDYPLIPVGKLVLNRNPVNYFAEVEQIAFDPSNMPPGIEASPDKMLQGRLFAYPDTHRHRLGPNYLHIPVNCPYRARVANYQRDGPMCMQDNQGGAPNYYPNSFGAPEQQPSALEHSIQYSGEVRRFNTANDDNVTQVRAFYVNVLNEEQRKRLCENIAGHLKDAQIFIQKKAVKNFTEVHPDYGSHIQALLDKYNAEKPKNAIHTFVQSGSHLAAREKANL

[1] = target: T2, membranous SOD of human tumor cells (MKN-45 gastric carcinoma, SHEP neuroblastoma) (human, UniProt P00441 2-154); test: cell-based or functional assay
T2 sequence (P00441 2-154): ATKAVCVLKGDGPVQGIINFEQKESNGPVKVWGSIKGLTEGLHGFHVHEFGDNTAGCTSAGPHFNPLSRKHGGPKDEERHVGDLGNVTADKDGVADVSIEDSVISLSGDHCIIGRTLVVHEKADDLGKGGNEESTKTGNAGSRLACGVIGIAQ

human SOD1 = target: T3, human SOD1 (human, UniProt P00441 2-154); test: heading of the sequence table; ELISA selection
T3 construct: Target of the ELISA by which the clones were selected; also called Cu/ZnSOD; superoxide dismutase
T3 sequence (P00441 2-154 limits assumed): as the sequence (P00441 2-154) above

[2] = target: T2, membranous SOD of human tumor cells …; test: cell-based or functional assay; remark: listed apart in the source
[3] = target: T4, membranous catalase of human tumor cells (MKN-45 gastric carcinoma, SHEP neuroblastoma) (human, UniProt P04040 2-527); test: cell-based or functional assay
T4 sequence (looked up): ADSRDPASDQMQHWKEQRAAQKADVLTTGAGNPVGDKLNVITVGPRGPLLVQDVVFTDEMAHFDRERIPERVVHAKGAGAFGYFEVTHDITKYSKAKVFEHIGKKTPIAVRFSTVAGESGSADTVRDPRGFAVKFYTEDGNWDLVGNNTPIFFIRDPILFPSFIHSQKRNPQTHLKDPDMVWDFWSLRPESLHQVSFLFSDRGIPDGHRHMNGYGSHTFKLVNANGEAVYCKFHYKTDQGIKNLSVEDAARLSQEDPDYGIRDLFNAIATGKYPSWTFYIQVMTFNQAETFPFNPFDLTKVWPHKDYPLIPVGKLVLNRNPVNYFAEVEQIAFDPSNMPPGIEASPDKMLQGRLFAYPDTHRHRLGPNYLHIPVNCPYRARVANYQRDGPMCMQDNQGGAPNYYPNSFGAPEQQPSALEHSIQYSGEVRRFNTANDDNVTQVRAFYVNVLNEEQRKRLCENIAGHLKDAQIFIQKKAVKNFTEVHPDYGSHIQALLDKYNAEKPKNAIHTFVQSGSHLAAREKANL

B1: aCATcb0973 (VHH)
VHH: EVQLVESGGGLVQPGGSLRLSCAVSGFIFNTYSMRWGRQAPGKGLEWVSSISTGGYSTYADSVKGRFTISRDNAKNLVYLQMNSLKPEDTAVYYCGWGAFVRGERPQGQGTQVTVSS
notes: Recombinant alpaca single domain VHH fragment against human catalase
Does B1 bind (human catalase)?
Result: binds

B2: aCATcb0974 (VHH)
VHH: QVQLVESGGGLVQPGGSLRLSCAASGSIFSIASMGWYRQAPGKQRDLVATITSDGSTKYADSVKGRFTISRDNAKNTMYLQMNSVKPEDAAVYYCNADADDLEPGSYDYDYWGQGTQVTVSS
notes: Recombinant alpaca single domain VHH fragment against human catalase; also called aCATcb9074
Does B2 bind (human catalase)?
Result: binds

B3: aSODcb0989 (VHH)
VHH: QVQLVESGGGLVQSGGSLTLSCTASGFTISNYPMTWVRQAPGKGLEWVSRINSGGDRTLYADSVKGRFTVSRDNARNTMYLQMNNLKPEDTGLYFCADSGAGWRYWGQGTQVTVSS
What does the source list for B3?
relation (molar basis) (against aCATaSOD) [1]: 2920 fold; relation to opt. conc. hybrid Fab (against aCATaSOD) [1]: 1460 fold

B4: aSODcb0987 (VHH)
VHH: QVQLVESGGGIVQPGGSLRLSCVASESISEIDAMYWHRQAPGKERELVAGITNDGTRYYADSVKGRFTISRDNAKSTLYLQMNSLKFEDTAMYYCAALPNPPPGYWGQGTQVTVSS
notes: Recombinant alpaca single domain VHH fragment against human SOD1
Does B4 bind (human SOD1)?
Result: binds

B5: aSODcb0991 (VHH)
VHH: QVQLVESGGGIVQPGGSLRLSCVASESISDIDAMYWHRQAPGKRRELVAGITNDGTEYFADSVKGRFAISRDNTKSSLYLQMNSLKLEDTAMYYCATLPNPPPGYWGQGTQVTVSS
With B5 as the binder, how does the “concentration required for apoptosis induction in SHEP cells, against the neutralizing single domain VHH fragment” value [2] read?
Its value is 1e+06 fold.

B6: aCATcb0975 (VHH)
VHH: QVQLVESGGGLVQPGGSLRLSCAASASIFSIYVMAWYRQAPGKQRELVATVTSGGATNYANSVKGRFTISRDNAKNTMDLQMNSLKPEDTAVYYCNAEDYYDYGLSRSKIYWGQGTQVTVSS
notes: as for B1
Does B6 bind (human catalase)?
Result: binds

B7: aCATcb0972 (VHH)
VHH: QVQLVESGGGLVQAGGSLRLSCAASERTFNTYGMGWFRQAPGKEREFVATISWSGDSTYYADSVKGRFTISRDNAKNTMYLQMNSLKPEDTAVYYCNANSEYGDSYWGQGTQVTVSS
Which results are given for B7?
relation (molar basis) (against aCATaSOD) [3]: 1420 fold; relation to opt. conc. hybrid Fab (against aCATaSOD) [3]: 708 fold
